Data reported in publication PMC3333781, “Systematic mapping of two component response regulators to gene targets in a model sulfate reducing bacterium”.

What was measured:
Test in all cases: EMSA; 10 mM Tris-HCl pH 7.5, 1 mM DTT, 50 mM KCl, 5 mM MgCl2, 25% glycerol, 1 ug/ml poly dI-dC, 50-100 fmol biotinylated DNA, 25-30 C, 20 min
Settings in all cases: protein: recombinant; tags: C-terminal V5-6xHis; chain copies: 2; label: 5'-biotin top strand
[1] = biological target: T1, DVU2114 response regulator (Desulfovibrio vulgaris Hildenborough, UniProt Q72A83 1-462)
T1 sequence: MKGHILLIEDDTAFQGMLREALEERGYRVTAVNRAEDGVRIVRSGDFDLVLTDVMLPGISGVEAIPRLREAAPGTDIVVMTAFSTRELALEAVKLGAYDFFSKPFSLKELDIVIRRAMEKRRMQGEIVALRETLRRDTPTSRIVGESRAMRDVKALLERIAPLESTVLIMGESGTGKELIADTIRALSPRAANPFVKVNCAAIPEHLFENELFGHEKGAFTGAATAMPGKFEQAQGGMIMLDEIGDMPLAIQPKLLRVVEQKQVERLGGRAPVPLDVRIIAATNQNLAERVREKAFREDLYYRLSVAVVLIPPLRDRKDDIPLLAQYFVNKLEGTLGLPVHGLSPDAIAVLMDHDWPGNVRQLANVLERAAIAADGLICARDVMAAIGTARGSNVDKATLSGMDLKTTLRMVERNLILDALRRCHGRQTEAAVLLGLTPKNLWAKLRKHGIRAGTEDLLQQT

[2] = biological target: T2, DVU1063 response regulator (Desulfovibrio vulgaris Hildenborough, UniProt Q72D66 1-479)
T2 sequence: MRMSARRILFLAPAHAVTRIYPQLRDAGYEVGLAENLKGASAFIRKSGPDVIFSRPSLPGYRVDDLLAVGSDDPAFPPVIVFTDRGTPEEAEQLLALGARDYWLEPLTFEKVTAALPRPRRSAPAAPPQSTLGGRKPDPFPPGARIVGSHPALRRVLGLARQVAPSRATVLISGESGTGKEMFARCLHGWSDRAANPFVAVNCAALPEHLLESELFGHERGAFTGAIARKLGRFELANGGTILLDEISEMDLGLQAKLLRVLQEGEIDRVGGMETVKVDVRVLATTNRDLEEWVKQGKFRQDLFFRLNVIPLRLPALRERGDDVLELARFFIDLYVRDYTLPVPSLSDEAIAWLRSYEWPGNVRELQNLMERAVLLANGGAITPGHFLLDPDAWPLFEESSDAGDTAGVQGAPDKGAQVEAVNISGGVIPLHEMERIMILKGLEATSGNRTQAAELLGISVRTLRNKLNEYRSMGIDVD

[3] = biological target: T3, DVU1419 response regulator (Desulfovibrio vulgaris Hildenborough, UniProt Q72C65 1-459)
T3 sequence: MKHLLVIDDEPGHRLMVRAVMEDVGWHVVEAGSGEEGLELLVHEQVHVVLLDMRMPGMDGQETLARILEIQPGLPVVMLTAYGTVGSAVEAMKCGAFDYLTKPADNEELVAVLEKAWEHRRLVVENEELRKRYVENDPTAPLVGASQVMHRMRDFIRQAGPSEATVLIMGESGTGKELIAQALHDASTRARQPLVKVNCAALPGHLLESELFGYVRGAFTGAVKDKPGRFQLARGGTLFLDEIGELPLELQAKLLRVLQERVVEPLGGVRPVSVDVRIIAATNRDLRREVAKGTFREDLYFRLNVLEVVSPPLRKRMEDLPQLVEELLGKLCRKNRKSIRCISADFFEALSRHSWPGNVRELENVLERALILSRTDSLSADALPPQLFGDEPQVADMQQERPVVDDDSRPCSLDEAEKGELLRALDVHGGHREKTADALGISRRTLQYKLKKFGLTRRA

B1: DVU2116 motif mut (dsDNA)
DNA 1: ACCGGGCCACTACACAAATCAATGCTGCCCATCGC
DNA 2: GCGATGGGCAGCATTGATTTGTGTAGTGGCCCGGT
**Q.** Does B1 bind [1]?
**A.** no binding

B2: DVU1032 motif mut (dsDNA)
DNA 1: GGCATGGTCGGGCACGTGTTTTCGATTGTATCCTG
DNA 2: CAGGATACAATCGAAAACACGTGCCCGACCATGCC
**Q.** Does B2 bind [2]?
**A.** no binding

B3: DVU1418 motif mut (dsDNA)
DNA 1: GCCGTGGCGTACTATGCCATCGTTTGCTCGTTCATGGTGC
DNA 2: GCACCATGAACGAGCAAACGATGGCATAGTACGCCACGGC
**Q.** Does B3 bind [3]?
**A.** no binding
